Reference: article PMC11387133

Target: microtubules of purified bovine brain tubulin (bovine) (UniProt Q6B856)
Test: optical trap rupture force assay; kinetochores held on beads by α-penta-His antibody; dynamic microtubules grown from coverslip-anchored GMPCPP seeds; force ramp 0.25 pN/s; 23 °C; BRB80

Row | Substance | median rupture force [pN]
1 | purified native K. marxianus kinetochores (from UniProt A0ABX6F0Z3 1-547; A0ABX6F2N8 1-203; A0ABX6ES48 1-179; A0ABX6ET36 1-377) (complex) | 7.5
2 | purified native S. cerevisiae kinetochores (from UniProt P40568 1-576) (complex) | 7.2
